Where a chain is given by its changes, count along the chain named. Names and notes keep the numbering of the source. Where two headings read alike, the source gives them in different places. Blank lines part the entries; values can stand above or below the binder they belong to.
Tests used:
Experiment in all cases: cell-based or functional assay
[1] = biological target: T1, human IL-2 receptor (IL-2Rα, IL-2Rβ, IL-2Rγ) (human, UniProt P01589 22-272; P14784 27-551; P31785 23-369)
T1 sequence (looked up) 1: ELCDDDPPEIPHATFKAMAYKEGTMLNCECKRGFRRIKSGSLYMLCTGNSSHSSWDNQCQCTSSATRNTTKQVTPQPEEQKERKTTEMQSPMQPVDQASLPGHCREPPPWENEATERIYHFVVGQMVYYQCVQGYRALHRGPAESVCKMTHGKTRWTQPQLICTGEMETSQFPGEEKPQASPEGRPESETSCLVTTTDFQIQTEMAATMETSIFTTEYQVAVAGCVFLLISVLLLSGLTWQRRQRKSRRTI
T1 sequence (looked up) 2: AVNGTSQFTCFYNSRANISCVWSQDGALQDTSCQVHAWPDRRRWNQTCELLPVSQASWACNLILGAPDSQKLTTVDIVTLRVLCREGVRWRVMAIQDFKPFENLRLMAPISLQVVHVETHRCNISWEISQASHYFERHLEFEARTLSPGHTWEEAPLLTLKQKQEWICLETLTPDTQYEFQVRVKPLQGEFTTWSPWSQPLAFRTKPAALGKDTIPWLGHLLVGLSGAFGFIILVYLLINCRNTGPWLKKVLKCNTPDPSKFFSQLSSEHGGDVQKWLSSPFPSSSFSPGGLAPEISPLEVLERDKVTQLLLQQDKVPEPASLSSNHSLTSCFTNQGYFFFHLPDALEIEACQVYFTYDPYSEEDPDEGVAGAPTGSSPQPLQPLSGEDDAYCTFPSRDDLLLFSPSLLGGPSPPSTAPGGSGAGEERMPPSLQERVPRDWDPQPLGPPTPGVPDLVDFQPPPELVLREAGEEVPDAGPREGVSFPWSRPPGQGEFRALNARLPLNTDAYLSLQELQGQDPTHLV
T1 sequence (looked up) 3: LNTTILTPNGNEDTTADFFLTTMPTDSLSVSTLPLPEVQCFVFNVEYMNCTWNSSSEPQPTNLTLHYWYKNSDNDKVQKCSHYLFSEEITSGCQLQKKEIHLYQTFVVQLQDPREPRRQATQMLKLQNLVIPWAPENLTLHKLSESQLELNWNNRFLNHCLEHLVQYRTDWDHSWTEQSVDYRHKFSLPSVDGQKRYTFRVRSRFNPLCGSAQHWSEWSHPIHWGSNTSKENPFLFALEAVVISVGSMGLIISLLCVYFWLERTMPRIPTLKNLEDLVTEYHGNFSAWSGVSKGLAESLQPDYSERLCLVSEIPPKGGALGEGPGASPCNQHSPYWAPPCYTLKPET

[2] = biological target: human IL-12 receptor complex (IL-12Rβ1, IL-12Rβ2) (human, UniProt P42701 24-662; Q99665 24-862)
Chain of human IL-12 receptor complex (IL-12Rβ1, IL-12Rβ2) (Q99665 24-862, chain 2 of 2, other chains not shown): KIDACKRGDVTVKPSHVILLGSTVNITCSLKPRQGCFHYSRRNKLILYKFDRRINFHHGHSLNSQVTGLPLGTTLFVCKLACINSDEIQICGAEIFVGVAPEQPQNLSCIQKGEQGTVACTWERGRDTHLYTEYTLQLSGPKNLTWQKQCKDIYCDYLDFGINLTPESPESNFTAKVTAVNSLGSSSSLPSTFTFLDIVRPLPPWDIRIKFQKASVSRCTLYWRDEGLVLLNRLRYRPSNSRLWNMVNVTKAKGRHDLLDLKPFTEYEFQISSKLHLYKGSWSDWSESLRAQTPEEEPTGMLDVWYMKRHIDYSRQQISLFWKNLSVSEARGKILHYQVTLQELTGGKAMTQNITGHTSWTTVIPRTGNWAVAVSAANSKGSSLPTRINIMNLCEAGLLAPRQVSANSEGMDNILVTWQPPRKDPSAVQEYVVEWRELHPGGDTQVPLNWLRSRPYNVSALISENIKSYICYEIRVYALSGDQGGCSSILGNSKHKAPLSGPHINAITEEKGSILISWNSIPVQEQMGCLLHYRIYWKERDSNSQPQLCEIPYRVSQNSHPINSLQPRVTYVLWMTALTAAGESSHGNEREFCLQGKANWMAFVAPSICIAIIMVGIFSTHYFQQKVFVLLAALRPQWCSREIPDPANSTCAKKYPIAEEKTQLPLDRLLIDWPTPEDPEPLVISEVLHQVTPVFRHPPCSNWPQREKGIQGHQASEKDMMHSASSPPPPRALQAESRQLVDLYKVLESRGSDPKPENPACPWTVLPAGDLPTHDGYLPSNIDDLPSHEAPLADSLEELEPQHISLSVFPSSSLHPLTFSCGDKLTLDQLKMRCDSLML

[3] = biological target: T1, human IL-2 receptor (IL-2Rα, IL-2Rβ, …); remark: listed apart in the source

IL-2 biological activity, HEK-IL-2 [1]: 4%
IL-2 biological activity, HEK-IL-2-PD-1 [1]: 35%
IL-12 biological activity, HEK-IL-12 [2]: < 0.2%
IL-12 biological activity, HEK-IL-12-PD-1 [2]: 19%
B1: IL-2(L18R/Q22E/R38D/K43E/E61R)/IL-12(E59A/F60A)/PD-L1(mut2)-Fc (Fc fusion)
chain 1: FTVTVPKDLYVVEYGSNMTIECKFPVEKQLDLAALQVYWMMEDKNIIQFVHGEEDLKVQHSSYRQRARLLKDQLSLGNAALQITDVKLQDAGVYTCLIAYKGADYKRITVKVNAPYNKINQRILVVDPVTSEHELTCQAEGYPKAEVIWTSSDHQVLSGKTTTTNSKREEKLFNVTSTLRINTTTNEIFYCTFRRLDPEENHTAELVIPELPLAHPPNERGGGGSGGGIWELKKDVYVVELDWYPDAPGEMVVLTCDTPEEDGITWTLDQSSEVLGSGKTLTIQVKAAGDAGQYTCHKGGEVLSHSLLLLHKKEDGIWSTDILKDQKEPKNKTFLRCEAKNYSGRFTCWWLTTISTDLTFSVKSSRGSSDPQGVTCGAATLSAERVRGDNKEYEYSVECQEDSACPAAEESLPIEVMVDAVHKLKYENYTSSFFIRDIIKPDPPKNLQLKPLKNSRQVEVSWEYPDTWSTPHSYFSLTFCVQVQGKSKREKKDRVFTDKTSATVICRKNASISVRAQDRYYSSSWSEWASVPCSGGGGSGGGSGGGGSRNLPVATPDPGMFPCLHHSQNLLRAVSNMLQKARQTLEFYPCTSEEIDHEDITKDKTSTVEACLPLELTKNESCLNSRETSFITNGSCLASRKTSFMMALCLSSIYEDLKMYQVEFKTMNAKLLMDPKRQIFLDQNMLAVIDELMQALNFNSETVPQKSSLEEPDFYKTKIKLCILLHAFRIRAVTIDRVMSYLNASGGGGSGGGDKTHTCPPCPAPEDEGGPSVFLFPPKPKDTLMISRTPEVTCVVVDVSHEDPEVKFNWYVDGVEVHNAKTKPREEQYNSTYRVVSVLTVLHQDWLNGKEYKCKVSNKALPAPIEKTISKAKGQPREPQVYVYPPSREEMTKNQVSLTCLVKGFYPSDIAVEWESNGQPENNYKTTPPVLDEDGSFALVSKLTVDKSRWQQGNVFSCSVMHEALHNHYTQKSLSLSPGK
chain 2: FTVTVPKDLYVVEYGSNMTIECKFPVEKQLDLAALQVYWMMEDKNIIQFVHGEEDLKVQHSSYRQRARLLKDQLSLGNAALQITDVKLQDAGVYTCLIAYKGADYKRITVKVNAPYNKINQRILVVDPVTSEHELTCQAEGYPKAEVIWTSSDHQVLSGKTTTTNSKREEKLFNVTSTLRINTTTNEIFYCTFRRLDPEENHTAELVIPELPLAHPPNERGGGSGAPTSSSTKKTQLQLEHLRLDLEMILNGINNYKNPKLTDMLTFEFYMPKKATELKHLQCLERELKPLEEVLNLAQSKNFHLRPRDLISNINVIVLELKGSETTFMCEYADETATIVEFLNRWITFCQSIISTLTGGGGSGGGDKTHTCPPCPAPEKKGGPSVFLFPPKPKDTLMISRTPEVTCVVVDVSHEDPEVKFNWYVDGVEVHNAKTKPREEQYNSTYRVVSVLTVLHQDWLNGKEYKCKVSNKALPAPIEKTISKAKGQPREPQVYVLPPSREEMTKNQVSLLCLVKGFYPSDIAVEWESNGQPENRYMTWPPVLDSDGSFFLYSKLTVDKSRWQQGNVFSCSVMHEALHNHYTQKSLSLSPGK

IL-2 biological activity, HEK-IL-2 [1]: 2%
IL-2 biological activity, HEK-IL-2-PD-1 [1]: 20%
IL-12 biological activity, HEK-IL-12 [2]: < 0.2%
IL-12 biological activity, HEK-IL-12-PD-1 [2]: 25%
B2: IL-2(R38D/K43E/E61R/Q126T)/IL-12(E59A/F60A)/PD-L1(mut2)-Fc (Fc fusion)
chain 1: B1 chain 1
chain 2: B1 chain 2 with R243L, E247Q, Q351T

IL-2 biological activity, HEK-IL-2 [3]: < 0.1%
IL-2 biological activity, HEK-IL-2-PD-1 [3]: < 0.1%
B3: PD-L1(mut2)-Fc (Fc fusion)
chain 1: FTVTVPKDLYVVEYGSNMTIECKFPVEKQLDLAALQVYWMMEDKNIIQFVHGEEDLKVQHSSYRQRARLLKDQLSLGNAALQITDVKLQDAGVYTCLIAYKGADYKRITVKVNAPYNKINQRILVVDPVTSEHELTCQAEGYPKAEVIWTSSDHQVLSGKTTTTNSKREEKLFNVTSTLRINTTTNEIFYCTFRRLDPEENHTAELVIPELPLAHPPNERGGGGSGGGDKTHTCPPCPAPEDEGGPSVFLFPPKPKDTLMISRTPEVTCVVVDVSHEDPEVKFNWYVDGVEVHNAKTKPREEQYNSTYRVVSVLTVLHQDWLNGKEYKCKVSNKALPAPIEKTISKAKGQPREPQVYVYPPSREEMTKNQVSLTCLVKGFYPSDIAVEWESNGQPENNYKTTPPVLDEDGSFALVSKLTVDKSRWQQGNVFSCSVMHEALHNHYTQKSLSLSPGK
chain 2: B3 chain 1 with D242K, E243K, Y359L, T374L, N398R, K400M, T402W, E408S, A413F, V415Y

IL-2 biological activity, HEK-IL-2 [3]: 4%
IL-2 biological activity, HEK-IL-2-PD-1 [3]: 35%
B4: IL-2(L18R/Q22E/R38D/K43E/E61R)/PD-L1(mut2)-Fc (Fc fusion)
chain 1: B3 chain 1
chain 2: B1 chain 2

IL-2 biological activity, HEK-IL-2 [1]: < 0.1%
IL-2 biological activity, HEK-IL-2-PD-1 [1]: < 0.1%
IL-12 biological activity, HEK-IL-12 [2]: < 0.2%
IL-12 biological activity, HEK-IL-12-PD-1 [2]: 24%
B5: IL-12(E59A/F60A)/PD-L1(mut2)-Fc (Fc fusion)
chain 1: B1 chain 1
chain 2: B3 chain 1 with D242K, E243K, Y359L, T374L, N398R, K400M, T402W, E408S, A413F, V415Y

IL-2 biological activity, HEK-IL-2 [3]: < 0.1%
IL-2 biological activity, HEK-IL-2-PD-1 [3]: < 0.1%
B6: IL-2(L18R/Q22E/R38D/K43E/E61R/Q126T/S130R)/PD-L1(mut2)-Fc (Fc fusion)
chain 1: B3 chain 1
chain 2: B1 chain 2 with Q351T, S355R

IL-2 biological activity, HEK-IL-2 [3]: 2%
IL-2 biological activity, HEK-IL-2-PD-1 [3]: 20%
B7: IL-2(R38D/K43E/E61R/Q126T)/PD-L1(mut2)-Fc (Fc fusion)
chain 1: B3 chain 1
chain 2: B1 chain 2 with R243L, E247Q, Q351T

IL-2 biological activity, HEK-IL-2 [3]: 16%
IL-2 biological activity, HEK-IL-2-PD-1 [3]: 76%
B8: IL-2(R38D/K43E/E61R)/PD-L1(mut2)-Fc (Fc fusion)
chain 1: B3 chain 1
chain 2: B1 chain 2 with R243L, E247Q

IL-2 biological activity, HEK-IL-2 [3]: < 0.1%
IL-2 biological activity, HEK-IL-2-PD-1 [3]: 5%
B9: IL-2(L18R/Q22E/R38D/K43E/E61R/Q126T)/PD-L1(mut2)-Fc (Fc fusion)
chain 1: B3 chain 1
chain 2: B1 chain 2 with Q351T

— patent US20240190962A1 (IMMUNOWAKE, published 2024)
